The text below walks through data of article doi:10.1101/2021.07.30.454553 (bioRxiv, 2021).

Where two headings read alike, the source gives them in different places.

Experiment [1] addresses T1, full-length human kinesin-1 heavy chain (KIF5B) (human, UniProt P33176 1-963, LD555, LD655 or Alexa488 label (imaging assays)).
T1 sequence (looked up): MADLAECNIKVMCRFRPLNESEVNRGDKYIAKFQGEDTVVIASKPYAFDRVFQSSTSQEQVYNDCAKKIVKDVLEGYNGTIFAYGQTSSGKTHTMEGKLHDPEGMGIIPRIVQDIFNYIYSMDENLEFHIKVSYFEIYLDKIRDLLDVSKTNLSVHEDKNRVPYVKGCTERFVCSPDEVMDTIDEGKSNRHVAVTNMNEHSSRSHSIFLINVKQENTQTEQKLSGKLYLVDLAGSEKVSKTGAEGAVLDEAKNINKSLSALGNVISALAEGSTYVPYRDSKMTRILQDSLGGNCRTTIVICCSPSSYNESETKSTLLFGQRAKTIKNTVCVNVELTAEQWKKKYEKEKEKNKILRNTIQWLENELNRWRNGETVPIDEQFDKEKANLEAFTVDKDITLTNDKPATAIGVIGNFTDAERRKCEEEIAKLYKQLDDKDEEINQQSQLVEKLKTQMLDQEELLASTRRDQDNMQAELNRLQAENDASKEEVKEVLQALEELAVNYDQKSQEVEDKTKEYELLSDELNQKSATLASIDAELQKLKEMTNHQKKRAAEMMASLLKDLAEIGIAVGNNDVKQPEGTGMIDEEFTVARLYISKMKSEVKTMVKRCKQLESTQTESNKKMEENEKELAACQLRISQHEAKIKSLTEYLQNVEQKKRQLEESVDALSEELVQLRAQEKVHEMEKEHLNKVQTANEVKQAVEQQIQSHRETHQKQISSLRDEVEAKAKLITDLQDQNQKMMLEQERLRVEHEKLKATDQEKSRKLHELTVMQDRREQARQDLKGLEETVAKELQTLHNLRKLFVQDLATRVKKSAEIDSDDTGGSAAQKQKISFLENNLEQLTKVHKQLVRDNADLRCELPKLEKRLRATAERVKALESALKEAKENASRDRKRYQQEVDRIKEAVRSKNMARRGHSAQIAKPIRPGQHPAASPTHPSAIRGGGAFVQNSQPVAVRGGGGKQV
In words: single-molecule colocalisation on microtubules.

The target in another experiment is T2, KIF5B^Δ1-336 (human, UniProt P33176 337-963).
T2 sequence (looked up): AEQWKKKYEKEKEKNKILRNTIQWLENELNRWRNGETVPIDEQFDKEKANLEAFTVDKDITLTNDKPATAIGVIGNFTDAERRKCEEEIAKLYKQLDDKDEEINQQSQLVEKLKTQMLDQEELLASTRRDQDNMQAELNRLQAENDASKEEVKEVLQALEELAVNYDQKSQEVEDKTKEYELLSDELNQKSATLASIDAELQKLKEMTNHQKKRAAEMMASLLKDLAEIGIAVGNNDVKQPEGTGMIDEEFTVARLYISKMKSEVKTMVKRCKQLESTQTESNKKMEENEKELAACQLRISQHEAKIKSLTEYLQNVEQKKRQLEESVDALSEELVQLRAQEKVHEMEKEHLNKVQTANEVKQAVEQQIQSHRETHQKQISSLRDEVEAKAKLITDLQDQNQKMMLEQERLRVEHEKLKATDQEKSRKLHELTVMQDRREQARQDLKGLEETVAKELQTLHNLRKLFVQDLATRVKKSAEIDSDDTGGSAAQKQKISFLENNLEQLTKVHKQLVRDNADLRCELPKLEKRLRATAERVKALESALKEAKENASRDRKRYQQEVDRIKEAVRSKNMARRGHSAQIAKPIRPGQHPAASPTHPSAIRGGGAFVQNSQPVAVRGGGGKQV
In words: single-molecule colocalisation on microtubules.

For experiment [2], the target named is T1, full-length human kinesin-1 heavy chain …. In words: single-molecule colocalisation on microtubules. This is another data set of the same source.
The target is the same in experiment [3]. Description: cell-based or functional assay.

B1: TRAK2^1-400 (domain or fragment, human, UniProt O60296 1-400, looked up)
chain: MSQSQNAIFTSPTGEENLMNSNHRDSESITDVCSNEDLPEVELVSLLEEQLPQYRLKVDTLFLYENQDWTQSPHQRQHASDALSPVLAEETFRYMILGTDRVEQMTKTYNDIDMVTHLLAERDRDLELAARIGQALLKRNHVLSEQNESLEEQLGQAFDQVNQLQHELCKKDELLRIVSIASEESETDSSCSTPLRFNESFSLSQGLLQLEMLQEKLKELEEENMALRSKACHIKTETVTYEEKEQQLVSDCVKELRETNAQMSRMTEELSGKSDELIRYQEELSSLLSQIVDLQHKLKEHVIEKEELKLHLQASKDAQRQLTMELHELQDRNMECLGMLHESQEEIKELRSRSGPTAHLYFSQSYGAFTGESLAAEIEGTMRKKLSLDEESSLFKQKAQ
modifications: LD555 or LD655 dye on the SNAP tag
B1: the binding result in experiment [1] is “binds”.

B2: TRAK1^1-400 (domain or fragment, human, UniProt Q9UPV9 1-400, looked up)
chain: MALVFQFGQPVRAQPLPGLCHGKLIRTNACDVCNSTDLPEVEIISLLEEQLPHYKLRADTIYGYDHDDWLHTPLISPDANIDLTTEQIEETLKYFLLCAERVGQMTKTYNDIDAVTRLLEEKERDLELAARIGQSLLKKNKTLTERNELLEEQVEHIREEVSQLRHELSMKDELLQFYTSAAEESEPESVCSTPLKRNESSSSVQNYFHLDSLQKKLKDLEEENVVLRSEASQLKTETITYEEKEQQLVNDCVKELRDANVQIASISEELAKKTEDAARQQEEITHLLSQIVDLQKKAKACAVENEELVQHLGAAKDAQRQLTAELRELEDKYAECMEMLHEAQEELKNLRNKTMPNTTSRRYHSLGLFPMDSLAAEIEGTMRKELQLEEAESPDITHQK
modifications: LD555 or LD655 dye on the SNAP tag
For B2, the binding result (with KIF5B^Δ1-336; in experiment [2]) was “binds” throughout.

B3: TRAK1^1-360 (domain or fragment, human, UniProt Q9UPV9 1-360, looked up)
chain: MALVFQFGQPVRAQPLPGLCHGKLIRTNACDVCNSTDLPEVEIISLLEEQLPHYKLRADTIYGYDHDDWLHTPLISPDANIDLTTEQIEETLKYFLLCAERVGQMTKTYNDIDAVTRLLEEKERDLELAARIGQSLLKKNKTLTERNELLEEQVEHIREEVSQLRHELSMKDELLQFYTSAAEESEPESVCSTPLKRNESSSSVQNYFHLDSLQKKLKDLEEENVVLRSEASQLKTETITYEEKEQQLVNDCVKELRDANVQIASISEELAKKTEDAARQQEEITHLLSQIVDLQKKAKACAVENEELVQHLGAAKDAQRQLTAELRELEDKYAECMEMLHEAQEELKNLRNKTMPNTTS
modifications: LD555 or LD655 dye on the SNAP tag (imaging assays)
As to B3, in experiment [3], the “landing rate of kinesin on MTs with TRAK1 1-360 against kinesin alone” value worked out at 1.5 fold and the “landing rate of kinesin/TRAK1 1-360 complexes, increase by 50 nM MAP7” value was over 7 fold.

B4: full-length TRAK2^1-914 (natural protein, human, UniProt O60296 1-914, looked up)
chain: MSQSQNAIFTSPTGEENLMNSNHRDSESITDVCSNEDLPEVELVSLLEEQLPQYRLKVDTLFLYENQDWTQSPHQRQHASDALSPVLAEETFRYMILGTDRVEQMTKTYNDIDMVTHLLAERDRDLELAARIGQALLKRNHVLSEQNESLEEQLGQAFDQVNQLQHELCKKDELLRIVSIASEESETDSSCSTPLRFNESFSLSQGLLQLEMLQEKLKELEEENMALRSKACHIKTETVTYEEKEQQLVSDCVKELRETNAQMSRMTEELSGKSDELIRYQEELSSLLSQIVDLQHKLKEHVIEKEELKLHLQASKDAQRQLTMELHELQDRNMECLGMLHESQEEIKELRSRSGPTAHLYFSQSYGAFTGESLAAEIEGTMRKKLSLDEESSLFKQKAQQKRVFDTVRIANDTRGRSISFPALLPIPGSNRSSVIMTAKPFESGLQQTEDKSLLNQGSSSEEVAGSSQKMGQPGPSGDSDLATALHRLSLRRQNYLSEKQFFAEEWQRKIQVLADQKEGVSGCVTPTESLASLCTTQSEITDLSSASCLRGFMPEKLQIVKPLEGSQTLYHWQQLAQPNLGTILDPRPGVITKGFTQLPGDAIYHISDLEEDEEEGITFQVQQPLEVEEKLSTSKPVTGIFLPPITSAGGPVTVATANPGKCLSCTNSTFTFTTCRILHPSDITQVTPSSGFPSLSCGSSGSSSSNTAVNSPALSYRLSIGESITNRRDSTTTFSSTMSLAKLLQERGISAKVYHSPISENPLQPLPKSLAIPSTPPNSPSHSPCPSPLPFEPRVHLSENFLASRPAETFLQEMYGLRPSRNPPDVGQLKMNLVDRLKRLGIARVVKNPGAQENGRCQEAEIGPQKPDSAVYLNSGSSLLGGLRRNQSLPVIMGSFAAPVCTSSPKMGVLKED
modifications: LD655 dye on the SNAP tag (imaging assays)
Regarding B4, in experiment [1], the binding result is given as “binds”.

B5: full-length TRAK1^1-953 (natural protein, human, UniProt Q9UPV9 1-953, looked up)
chain: MALVFQFGQPVRAQPLPGLCHGKLIRTNACDVCNSTDLPEVEIISLLEEQLPHYKLRADTIYGYDHDDWLHTPLISPDANIDLTTEQIEETLKYFLLCAERVGQMTKTYNDIDAVTRLLEEKERDLELAARIGQSLLKKNKTLTERNELLEEQVEHIREEVSQLRHELSMKDELLQFYTSAAEESEPESVCSTPLKRNESSSSVQNYFHLDSLQKKLKDLEEENVVLRSEASQLKTETITYEEKEQQLVNDCVKELRDANVQIASISEELAKKTEDAARQQEEITHLLSQIVDLQKKAKACAVENEELVQHLGAAKDAQRQLTAELRELEDKYAECMEMLHEAQEELKNLRNKTMPNTTSRRYHSLGLFPMDSLAAEIEGTMRKELQLEEAESPDITHQKRVFETVRNINQVVKQRSLTPSPMNIPGSNQSSAMNSLLSSCVSTPRSSFYGSDIGNVVLDNKTNSIILETEAADLGNDERSKKPGTPGTPGSHDLETALRRLSLRRENYLSERRFFEEEQERKLQELAEKGELRSGSLTPTESIMSLGTHSRFSEFTGFSGMSFSSRSYLPEKLQIVKPLEGSATLHHWQQLAQPHLGGILDPRPGVVTKGFRTLDVDLDEVYCLNDFEEDDTGDHISLPRLATSTPVQHPETSAHHPGKCMSQTNSTFTFTTCRILHPSDELTRVTPSLNSAPTPACGSTSHLKSTPVATPCTPRRLSLAESFTNTRESTTTMSTSLGLVWLLKERGISAAVYDPQSWDRAGRGSLLHSYTPKMAVIPSTPPNSPMQTPTSSPPSFEFKCTSPPYDNFLASKPASSILREVREKNVRSSESQTDVSVSNLNLVDKVRRFGVAKVVNSGRAHVPTLTEEQGPLLCGPPGPAPALVPRGLVPEGLPLRCPTVTSAIGGLQLNSGIRRNRSFPTMVGSSMQMKAPVTLTSGILMGAKLSKQTSLR
modifications: LD655 dye on the SNAP tag (imaging assays)
On to B5, for which the binding result in experiment [1] is “binds”.

B6: TRAK2^1-360 (domain or fragment, human, UniProt O60296 1-360, looked up)
chain: MSQSQNAIFTSPTGEENLMNSNHRDSESITDVCSNEDLPEVELVSLLEEQLPQYRLKVDTLFLYENQDWTQSPHQRQHASDALSPVLAEETFRYMILGTDRVEQMTKTYNDIDMVTHLLAERDRDLELAARIGQALLKRNHVLSEQNESLEEQLGQAFDQVNQLQHELCKKDELLRIVSIASEESETDSSCSTPLRFNESFSLSQGLLQLEMLQEKLKELEEENMALRSKACHIKTETVTYEEKEQQLVSDCVKELRETNAQMSRMTEELSGKSDELIRYQEELSSLLSQIVDLQHKLKEHVIEKEELKLHLQASKDAQRQLTMELHELQDRNMECLGMLHESQEEIKELRSRSGPTAHL
modifications: LD555 or LD655 dye on the SNAP tag (imaging assays)
As for B6, in experiment [3], the “landing rate of kinesin/TRAK2 1-360 complexes, increase by 50 nM MAP7” value worked out at 2 fold.
